Positions of bridges follow the written chain, without caps; N, C: chain ends. Non-standard residues stand in square brackets, D forms with d. Trp(1-Me) = Cn1cc(C[C@H](N)C(=O)O)c2ccccc21; Sar = CNCC(=O)O
target: Human C3 (Complement tech cat #A113c) (human, UniProt P01024 23-1663); experiment: cell-based or functional assay
Sequence (P01024 23-1663 limits assumed): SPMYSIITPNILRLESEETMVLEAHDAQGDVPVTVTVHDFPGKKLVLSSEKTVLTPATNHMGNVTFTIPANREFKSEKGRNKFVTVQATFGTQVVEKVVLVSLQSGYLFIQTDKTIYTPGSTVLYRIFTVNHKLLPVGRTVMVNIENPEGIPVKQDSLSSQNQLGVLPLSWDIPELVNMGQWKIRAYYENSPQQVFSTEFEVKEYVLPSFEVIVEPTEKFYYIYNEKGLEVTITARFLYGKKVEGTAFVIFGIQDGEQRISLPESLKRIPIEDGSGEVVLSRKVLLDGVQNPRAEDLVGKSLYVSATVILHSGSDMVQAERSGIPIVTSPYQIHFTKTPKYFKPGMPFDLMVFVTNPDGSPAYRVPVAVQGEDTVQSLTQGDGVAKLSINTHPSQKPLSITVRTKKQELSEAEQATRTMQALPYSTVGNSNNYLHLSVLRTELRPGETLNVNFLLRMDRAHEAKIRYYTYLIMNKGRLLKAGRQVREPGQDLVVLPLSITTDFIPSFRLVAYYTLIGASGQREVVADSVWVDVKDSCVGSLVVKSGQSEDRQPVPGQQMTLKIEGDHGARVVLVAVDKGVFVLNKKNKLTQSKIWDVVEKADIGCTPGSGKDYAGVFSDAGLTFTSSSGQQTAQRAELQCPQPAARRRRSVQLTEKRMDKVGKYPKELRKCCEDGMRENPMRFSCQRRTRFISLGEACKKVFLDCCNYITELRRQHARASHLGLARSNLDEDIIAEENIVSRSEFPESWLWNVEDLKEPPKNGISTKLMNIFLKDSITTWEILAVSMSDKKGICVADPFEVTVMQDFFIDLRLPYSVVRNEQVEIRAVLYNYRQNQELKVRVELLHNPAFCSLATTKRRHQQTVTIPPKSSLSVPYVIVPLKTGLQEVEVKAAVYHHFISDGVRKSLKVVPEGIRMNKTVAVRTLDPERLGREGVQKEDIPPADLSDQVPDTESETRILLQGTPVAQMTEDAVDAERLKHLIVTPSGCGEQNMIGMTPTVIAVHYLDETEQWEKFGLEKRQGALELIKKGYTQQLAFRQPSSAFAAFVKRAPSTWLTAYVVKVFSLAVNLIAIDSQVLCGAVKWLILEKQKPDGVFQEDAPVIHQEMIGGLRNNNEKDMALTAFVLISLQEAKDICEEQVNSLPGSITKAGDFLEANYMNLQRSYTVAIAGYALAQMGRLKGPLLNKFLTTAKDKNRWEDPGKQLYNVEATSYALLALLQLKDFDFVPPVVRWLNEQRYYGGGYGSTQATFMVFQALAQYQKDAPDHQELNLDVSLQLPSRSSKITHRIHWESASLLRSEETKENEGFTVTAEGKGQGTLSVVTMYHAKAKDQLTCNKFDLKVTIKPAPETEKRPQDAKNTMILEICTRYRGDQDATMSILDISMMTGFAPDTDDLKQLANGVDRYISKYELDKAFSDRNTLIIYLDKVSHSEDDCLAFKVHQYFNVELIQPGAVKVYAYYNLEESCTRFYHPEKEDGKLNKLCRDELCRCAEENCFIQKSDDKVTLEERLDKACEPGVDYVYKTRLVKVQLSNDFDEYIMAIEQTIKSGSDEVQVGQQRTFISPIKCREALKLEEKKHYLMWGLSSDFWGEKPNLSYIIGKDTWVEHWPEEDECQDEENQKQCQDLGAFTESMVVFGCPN

Binder	inhibition of hemolysis IC50 [nM]
Ac-GEFCI[Trp(1-Me)]QDWGEHRC[Sar]EA-NH2 (disulfide 4-14; SMILES CC[C@H](C)[C@@H]1NC(=O)[C@@H](NC(=O)[C@H](Cc2ccccc2)NC(=O)[C@H](CCC(=O)O)NC(=O)CNC(C)=O)CSSC[C@@H](C(=O)N(C)CC(=O)N[C@@H](CCC(=O)O)C(=O)N[C@@H](C)C(N)=O)NC(=O)[C@H](CCCNC(=N)N)NC(=O)[C@H](Cc2c[nH]cn2)NC(=O)[C@H](CCC(=O)O)NC(=O)CNC(=O)[C@H](Cc2c[nH]c3ccccc23)NC(=O)[C@H](CC(=O)O)NC(=O)[C@H](CCC(N)=O)NC(=O)[C@H](Cc2cn(C)c3ccccc23)NC1=O) [Compound 87]	< 100
Ac-GE[Sar]CI[Trp(1-Me)]QDWGEHRCTEA-NH2 (disulfide 4-14; SMILES CC[C@H](C)[C@@H]1NC(=O)[C@@H](NC(=O)CN(C)C(=O)[C@H](CCC(=O)O)NC(=O)CNC(C)=O)CSSC[C@@H](C(=O)N[C@H](C(=O)N[C@@H](CCC(=O)O)C(=O)N[C@@H](C)C(N)=O)[C@@H](C)O)NC(=O)[C@H](CCCNC(=N)N)NC(=O)[C@H](Cc2c[nH]cn2)NC(=O)[C@H](CCC(=O)O)NC(=O)CNC(=O)[C@H](Cc2c[nH]c3ccccc23)NC(=O)[C@H](CC(=O)O)NC(=O)[C@H](CCC(N)=O)NC(=O)[C@H](Cc2cn(C)c3ccccc23)NC1=O) [Compound 88]	< 100
Ac-SEFCI[Trp(1-Me)]QEWGEHRC[Sar]EA-NH2 (disulfide 4-14; SMILES CC[C@H](C)[C@@H]1NC(=O)[C@@H](NC(=O)[C@H](Cc2ccccc2)NC(=O)[C@H](CCC(=O)O)NC(=O)[C@H](CO)NC(C)=O)CSSC[C@@H](C(=O)N(C)CC(=O)N[C@@H](CCC(=O)O)C(=O)N[C@@H](C)C(N)=O)NC(=O)[C@H](CCCNC(=N)N)NC(=O)[C@H](Cc2c[nH]cn2)NC(=O)[C@H](CCC(=O)O)NC(=O)CNC(=O)[C@H](Cc2c[nH]c3ccccc23)NC(=O)[C@H](CCC(=O)O)NC(=O)[C@H](CCC(N)=O)NC(=O)[C@H](Cc2cn(C)c3ccccc23)NC1=O) [Compound 83]	< 100
Ac-EFCI[Trp(1-Me)]QDWGEHRC[Sar]EA-NH2 (disulfide 3-13; SMILES CC[C@H](C)[C@@H]1NC(=O)[C@@H](NC(=O)[C@H](Cc2ccccc2)NC(=O)[C@H](CCC(=O)O)NC(C)=O)CSSC[C@@H](C(=O)N(C)CC(=O)N[C@@H](CCC(=O)O)C(=O)N[C@@H](C)C(N)=O)NC(=O)[C@H](CCCNC(=N)N)NC(=O)[C@H](Cc2c[nH]cn2)NC(=O)[C@H](CCC(=O)O)NC(=O)CNC(=O)[C@H](Cc2c[nH]c3ccccc23)NC(=O)[C@H](CC(=O)O)NC(=O)[C@H](CCC(N)=O)NC(=O)[C@H](Cc2cn(C)c3ccccc23)NC1=O) [Compound 80]	< 100
Ac-SEFCI[Trp(1-Me)]QDWGEHRCSEA-NH2 (disulfide 4-14; SMILES CC[C@H](C)[C@@H]1NC(=O)[C@@H](NC(=O)[C@H](Cc2ccccc2)NC(=O)[C@H](CCC(=O)O)NC(=O)[C@H](CO)NC(C)=O)CSSC[C@@H](C(=O)N[C@@H](CO)C(=O)N[C@@H](CCC(=O)O)C(=O)N[C@@H](C)C(N)=O)NC(=O)[C@H](CCCNC(=N)N)NC(=O)[C@H](Cc2c[nH]cn2)NC(=O)[C@H](CCC(=O)O)NC(=O)CNC(=O)[C@H](Cc2c[nH]c3ccccc23)NC(=O)[C@H](CC(=O)O)NC(=O)[C@H](CCC(N)=O)NC(=O)[C@H](Cc2cn(C)c3ccccc23)NC1=O) [Compound 84]	< 100
